Legend:
[1] = biological target: T1, rat FOLR1 extracellular domain linked to His tag (rat, UniProt G3V8M6 25-232); test: BLI, Ag 125 nM; * below range of quantification
T1 construct: BLI analyte; also called Rat-Ag

[2] = biological target: T2, mouse FOLR1 extracellular domain linked to His tag (mouse, UniProt P35846 25-232, limits assumed); test: BLI, Ag 125 nM; * below range of quantification
T2 construct: extracellular domain; BLI analyte; also called Mouse-Ag; not shown: His tag

[3] = biological target: T1, rat FOLR1 extracellular domain linked …; test: BLI, Ag 15.6 nM; * below range of quantification
[4] = biological target: T2, mouse FOLR1 extracellular domain linked …; test: BLI, Ag 15.6 nM; * below range of quantification
[5] = biological target: T1, rat FOLR1 extracellular domain linked …; test: BLI, Ag 31.3 nM; * below range of quantification
[6] = biological target: T2, mouse FOLR1 extracellular domain linked …; test: BLI, Ag 31.3 nM; * below range of quantification
[7] = biological target: T1, rat FOLR1 extracellular domain linked …; test: BLI, Ag 62.5 nM; * below range of quantification
[8] = biological target: T2, mouse FOLR1 extracellular domain linked …; test: BLI, Ag 62.5 nM; * below range of quantification
[9] = biological target: T1, rat FOLR1 extracellular domain linked …; test: BLI, Ag 7.82 nM; * below range of quantification
[10] = biological target: T2, mouse FOLR1 extracellular domain linked …; test: BLI, Ag 7.82 nM; * below range of quantification
[11] = biological target: T3, human FOLR3 extracellular domain linked to His tag (human, UniProt P41439 23-245, limits assumed); test: BLI, global 1:1 fit; all responses below quantification range
T3 construct: extracellular domain; BLI analyte; also called Hu-FRg; not shown: His tag
T3 sequence (P41439 23-245 limits assumed): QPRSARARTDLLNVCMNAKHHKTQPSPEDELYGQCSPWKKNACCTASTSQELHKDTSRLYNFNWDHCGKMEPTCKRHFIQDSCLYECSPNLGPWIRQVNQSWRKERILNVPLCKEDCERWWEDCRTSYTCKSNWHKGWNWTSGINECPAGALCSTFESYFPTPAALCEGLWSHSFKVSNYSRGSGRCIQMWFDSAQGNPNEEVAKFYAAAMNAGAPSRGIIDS

[12] = biological target: T1, rat FOLR1 extracellular domain linked …; test: as above
[13] = biological target: T4, human FOLR1 protein, His tag (ACRO-FO1-H52H1) (human, UniProt P15328 25-233); test: ELISA, supernatant diluted 25x
T4 construct: Bought recombinant protein used for panning and for coating ELISA plates; not shown: His tag
T4 sequence (P15328 25-233 limits assumed): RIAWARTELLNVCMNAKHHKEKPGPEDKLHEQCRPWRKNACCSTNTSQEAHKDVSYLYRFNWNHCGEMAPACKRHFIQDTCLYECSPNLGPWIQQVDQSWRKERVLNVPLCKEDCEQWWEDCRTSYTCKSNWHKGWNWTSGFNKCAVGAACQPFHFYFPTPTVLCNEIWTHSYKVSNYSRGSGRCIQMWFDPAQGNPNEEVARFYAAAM

T1 sequence (G3V8M6 entry or part of it limits assumed): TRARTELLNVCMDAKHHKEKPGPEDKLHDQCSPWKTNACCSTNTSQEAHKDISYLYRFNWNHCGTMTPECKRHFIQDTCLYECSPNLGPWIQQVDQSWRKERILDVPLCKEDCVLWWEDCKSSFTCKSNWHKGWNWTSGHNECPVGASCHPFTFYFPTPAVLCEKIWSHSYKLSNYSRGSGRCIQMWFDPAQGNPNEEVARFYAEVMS
T2 sequence (P35846 25-232 limits assumed): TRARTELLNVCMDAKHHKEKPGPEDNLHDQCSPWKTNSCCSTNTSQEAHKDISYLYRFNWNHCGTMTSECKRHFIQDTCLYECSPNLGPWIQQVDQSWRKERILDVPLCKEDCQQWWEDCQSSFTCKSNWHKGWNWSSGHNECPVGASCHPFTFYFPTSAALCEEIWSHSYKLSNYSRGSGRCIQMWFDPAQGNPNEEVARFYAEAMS

Row | Binder | Response [1] | Response [2] | Response [3] | Response [4] | Response [5] | Response [6] | Response [7] | Response [8] | Response [9] | Response [10] | Kd [11] [nM] | Kd [12] [nM] | koff [12] [s⁻¹] | kon [12] [M⁻¹ s⁻¹] | OD450 [13] [OD450]
1 | anti-huFOLR-1 conjugate F131-LD038 (antibody, V domains shown, drug-linker LD038 coupled to cysteine thiols after TCEP reduction; positions not given; drug-linker LD038 (PB038; PEG unit, Val-Cit-PAB cleavable linker, exatecan) coupled by maleimide to cysteine thiols after TCEP reduction; DAR 7.6 by LC-MS; positions not given, also called F131-038; PA038 conjugate of F131) VH: EVQLLESGGGVVQPGRSLRLSCAASGFTFSSYGMHWVRQAPGKGLEWVAVISYDGSNKYYADSVKGRFTISRANSKNTLYLQMNSLRAEDTAVYYCARPRAYYGAYGSSFDYWGQGTQVTVSS VL: EIVMTQSPSSVSASVGDRVAITCRASQGISSWLAWYQQKPGKAPKLLIYAASSLQSGVPSRFSGSGSGTDFTLTISSLQPEDFATYYCQQSYSTPLTFGGGTKVDIK | 0.0007 | 0.0008 | -0.00212 | -0.00324 | -0.00454 | -0.00132 | -0.00393 | -0.000242 | -0.00438 | -0.00483 | 0.0328 | 84.8 | 0.224 | 2.64e+06 | 
2 | anti-FOLR1 antibody F138 (antibody, V domains shown, Tested as full-length IgG with an IgG1 Fc, expressed in HEK293 (transfection supernatant); also called clone F138) VH: EVQLLESGGGVVQPGRSLRLSCAASGFTFSSYGMHWVRQAPGKGLEWVAVISYDGSNKYYADSVKGRFTISTHNSKNTLYLQMNSLRAEDTAVYYCARPRAYYGAYGSSFDYWGQGTQVTVSS VL: EIVMTQSPSSVSASVGDRVAITCRASQGISSWLAWYQQKPGKAPKLLIYAASSLQSGVPSRFSGSGSGTDFTLTISSLQPEDFATYYCQQSYSTPLTFGGGTKVDIK |  |  |  |  |  |  |  |  |  |  |  |  |  |  | 0.827
3 | anti-FOLR1 antibody F131 (antibody, V domains shown, Tested as full-length IgG with an IgG1 Fc (HEK293 supernatant and purified; later ExpiCHO-S); also called F131 mAb; F131 Ab) VH: EVQLLESGGGVVQPGRSLRLSCAASGFTFSSYGMHWVRQAPGKGLEWVAVISYDGSNKYYADSVKGRFTISRANSKNTLYLQMNSLRAEDTAVYYCARPRAYYGAYGSSFDYWGQGTQVTVSS VL: EIVMTQSPSSVSASVGDRVAITCRASQGISSWLAWYQQKPGKAPKLLIYAASSLQSGVPSRFSGSGSGTDFTLTISSLQPEDFATYYCQQSYSTPLTFGGGTKVDIK | -0.00477 | -0.000579 | -0.00395 | -0.0051 | -0.00532 | -0.00251 | -0.00606 | -0.00178 | -0.00563 | 0.0027 |  |  | 1.03 | 5490 | 
